Assay [1] is described as follows: Efficacy in db/db mice: body weight, food intake, glucose, biomarkers, daily sc 14 days. Format: in vivo.
Assay [2] is described as follows: Body weight and food intake in C57BL/6 mice, fusion protein conjugates, 30 nmol/kg daily 10 days. Format: in vivo. The procedure, abridged: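 Male C57BL/6 mice received fusion protein conjugates by daily subcutaneous injection, with dosing running from Day 1 to Day 10. Body weight was recorded daily per animal and food intake daily per group. Body weight reduction was expressed relative to vehicle percent loss from Day 1. Cumulative food intake reduction was expressed as percent decrease versus vehicle.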

Assay [3] is described as follows: Efficacy in DIO mice, daily sc 28 days. Format: in vivo, DIO male C57BL/6 mice. On the procedure: FIGS. 6A-6E show In vivo efficacy in DIO mice. To evaluate the body weight, food intake and glucose effects of the fusion proteins, 17 week old DIO mice (C57BL/6 mice on high fat diet for 13 weeks) were dosed everyday subcutaneously with different concentrations of proteins for 28 days. […] FIGS. 6D and 6E show body weight change with dose titrations of MLC089 and MLC093 at 3, 10 and 30 nmol/kg. Data are expressed as mean values and standard error (SEM) for FIGS. 6A, 6C, 6D and 6E. n=5 for each treatment group. For FIG. 6B, a pooled food intake was measured for each treatment group.
17 week old DIO male C57BL/6 mice (˜45 g) were injected everyday subcutaneously with designated proteins (i.e., MLC089, MLC093) for 28 days. Food intake and body weight were measured daily and five animals were used for each treatment group. Fasting glucose was also monitored on designated days. Body weight and glucose were monitored for each individual animal, but food intake for each group animals was measured together. Day 1 and Day 28 are first day and last day of molecule dosage. % BW loss=100*(BW on Day n-BW on Day 1)/(BW on Day 1). Cumulative food intake on Day n represents sum of food intake from Day 1 to Day n. Terminal blood was collected and EDTA-2K plasma was prepared and frozen at −80 C for biomarker measurement. Liver was also collected and frozen in liquid nitrogen and store at −80 C. Data are indicated as mean values and standard error (SEM) or pooled values.

Where [4] appears, read: 30 nmol/kg, FIG. 8A-C, versus Semaglutide, Tirzepatide and MLC014.

B1: MLC093: fusion polypeptide SEQ ID NO: 381 conjugated with Moiety B at 33C of Linker (conjugate)
chain: HGEGTFTSDVSSYLEEQAAKEFIAWLVRGGGGAQPGAQPGAQPGAQPGAQPGAQPGAQPGAQPCQEPGAQPGQEPGAQPGQEPGAQPGQEPGAQPGQEPGAQPGQEPGAQPARQGDHCPLGPGRCCRLHTVRASLEDLGWADWVLSPREVQVTMCIGACPSQFRAANLHAQIKTSLHRLKPDTVPAPCCVPASYNPMVLIQKTDTGVSLQTYDDLLAKDCHCI
modifications: Moiety B conjugated at linker Cys33
In the case of B1, in assay [1] (setting [4]), the body weight loss entry is “more body weight loss, food intake suppression and glycemic control”; the food intake suppression entry was “more body weight loss, food intake suppression and glycemic control”; the glycemic control result was “more body weight loss, food intake suppression and glycemic control”. Moreover, in assay [1] (Day 15, FIG. 8I), the liver triglyceride content result is listed as “a trend in reducing liver triglyceride content”. In addition, the efficacy entry in assay [1] (FIG. 8 study) is “better efficacy than Semaglutide and GDF15 derivative (MLC014)”. Further, in assay [1] (terminal plasma Day 15, FIG. 8G), the plasma triglyceride concentration result is reported as “induced the reduction”. In addition, the “plasma ALT concentration” value in assay [1] (terminal plasma Day 15, FIG. 8H) was “induced the reduction”. In addition, in assay [2], the “Body weight reduction at 30 nmol/kg (% reduction compared to vehicle)(Day11)” value came to 26.2% and the “Cumulative food intake reduction at 30 nmol/kg (% reduction compared to vehicle)(Day11)” value is on record as 43.8%. The “body weight reduction efficacy” value in assay [3] (DIO mice, 30 nmol/kg daily 28 days, FIG. 6A) is “much better body weight reduction efficacy than Semaglutide and GDF15 derivative (MLC014)”. In addition, in assay [3] (DIO mice, 3, 10 and 30 nmol/kg, FIGS. 6D and 6E), the “dose dependence of body weight reduction” value was “dose dependent efficacy on body weight reduction”. For the same molecule, in assay [3] (DIO mice, FIG. 6C), the fasting glucose result is reported as “reached similar level to Semaglutide”. Also, the efficacy result in assay [3] (DIO study, FIG. 6) is “better efficacy than Semaglutide and GDF15 derivative (MLC014)”.

(Values after patent US11453711B2, “Fusion proteins of GLP-1 and GDF15 and conjugates thereof” (BEIJING QL BIOPHARMACEUTICAL CO., LTD., priority 2019, dated 2022).)
